The target of test [1] is T1, CRHR2 γ (Homo sapiens, UniProt Q13324, DEL106-106).
T1 sequence (Q13324 with tags, fused parts or gaps DEL106-106): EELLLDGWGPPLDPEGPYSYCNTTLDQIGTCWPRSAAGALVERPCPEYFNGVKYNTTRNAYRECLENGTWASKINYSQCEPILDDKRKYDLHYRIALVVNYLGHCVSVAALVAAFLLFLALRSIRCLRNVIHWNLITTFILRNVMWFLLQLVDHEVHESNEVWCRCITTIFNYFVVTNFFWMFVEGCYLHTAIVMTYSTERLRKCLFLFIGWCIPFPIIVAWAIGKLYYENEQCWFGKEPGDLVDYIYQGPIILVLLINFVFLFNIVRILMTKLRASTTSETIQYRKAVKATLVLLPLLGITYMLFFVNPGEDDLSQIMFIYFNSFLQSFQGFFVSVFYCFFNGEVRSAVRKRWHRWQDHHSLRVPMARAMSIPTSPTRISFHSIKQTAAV
The test is described as follows: Whole cell adenylate cyclase assay (cAMP accumulation) in HEK293EBNA cells expressing CRHR2γ. In kind it is cell-based. The conditions noted are these: rank order only; summary statement. A general note: Changes in cAMP serve as a functional read-out for many G protein-coupled receptors.
Experimental: HEK293EBNA cells expressing the CRHR2 γ were incubated in DMEM with low serum (0.1% FBS) at 37° C., 5% CO2 for at least 2 hrs before the addition of isobytylmethoxyxanthine (IBMX) to the media at a final concentration of 0.1 mM. The cells were incubated with the IBMX for 30 minutes; test peptides or compounds were then added to the media and incubated therein for 25-30 min. The media was then aspirated from the cells and replaced with ice cold sodium acetate buffer containing 1 mM IBMX. The cells were then disrupted by a freeze-thaw, followed by sonication. Supernatants were assayed for cAMP levels with PerSeptive Diagnostics EIA Kit.

In test [2] the target is T2, CRHR2 γ receptor (Homo sapiens, UniProt Q13324, DEL106-106).
T2 construct: the full length CRHR2 γ cDNA (original cDNA library clone) was subcloned; expressed in transfected cells; membranes
T2 sequence (Q13324 with tags, fused parts or gaps isoform Q13324-3 DEL92-92): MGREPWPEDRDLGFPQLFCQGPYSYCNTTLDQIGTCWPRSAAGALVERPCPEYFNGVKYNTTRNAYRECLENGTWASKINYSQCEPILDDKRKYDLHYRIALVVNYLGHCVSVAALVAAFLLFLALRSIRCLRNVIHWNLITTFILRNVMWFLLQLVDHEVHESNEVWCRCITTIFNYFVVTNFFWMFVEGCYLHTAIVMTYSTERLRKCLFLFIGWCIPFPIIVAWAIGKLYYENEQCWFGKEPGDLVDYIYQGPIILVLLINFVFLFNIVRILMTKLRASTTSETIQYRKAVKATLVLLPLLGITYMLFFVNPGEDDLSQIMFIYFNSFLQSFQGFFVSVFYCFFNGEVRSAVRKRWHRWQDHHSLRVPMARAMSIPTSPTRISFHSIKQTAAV
The test is described as follows: Displacement of 125I-tyr-0-sauvagine from membranes of HEK293EBNA cells expressing CRHR2γ. It is filed as binding. The conditions noted are these: 60-70 pM 125I-tyr-0-sauvagine; 23° C., 4 hours; read-out: approximate IC50 for displacement of 125I-tyr-0-sauvagine. (In a radioligand displacement assay an active substance lowers the binding of a labelled ligand.)
Experimental: Buffer consisted of 50 mM HEPES, 10 mM MgCI2, 2 mM EGTA, and 1 μg/ml each of aprotinin, leupeptin, and pepstatin at a final pH of 7.0. Bacitracin at 0.15 mM and ovalbumin at 0.1% were added to the buffer on the day of use. Assays were performed at 23° C. for 4 hours in a final volume of 200 μl in 96-well microtiter plates. Reactions were initiated by the addition of 10-20 μg of membrane homogenates and terminated by rapid filtration through presoaked (0.3% polyethyleneimine) glass fiber filters using an Inotech 96-well harvester. The filters were washed quickly 3×with ice-cold solution (PBS+0.01% TritonX-100, pH7.2), dried briefly, then placed into polystyrene tubes and counted on an Isomedic 10/880 γ counter (counting efficiency ~80%). Data was analyzed by nonlinear regression analysis using the computer program MacLigand. Determinations were made from at least 3 separate experiments.

Where no end group is shown, it is not given here.

With “r/h CRH: rat/human corticotropin-releasing hormone, agonist peptide”, the “potency of stimulation of adenylate cyclase activity (rank order), measured by intracellular cAMP accumulation” value in test [1] is recorded as “sauvagine>urotensin>rat/human CRH”. As a reminder, the IC50 is the midpoint of a concentration-inhibition curve. Turning to “urocortin: mammalian neuropeptide related to fish urotensin I and to corticotropin-releasing factor (DNPSLSIDLTFHLLRTLLELARTQSQRERAEQNRIIFDSV; ends and bridges not checked; UniProt P55089 83-122, looked up)”, in test [2], the IC50 was roughly 2 nM.

These data come from patent US5888811A, “Corticotropin-releasing hormone receptor” (DuPont Pharmaceuticals Company, priority 1997, dated 1999).
